Measurements reported in article PMC5461336, “Non-canonical Glucocorticoid Receptor Transactivation of gilz by Alcohol Suppresses Cell Inflammatory Response”.

B1: Wt-GRE2 (dsDNA)
DNA 1: GGTGGAACCCAATGTTCTCCTTTGGTCCTG
DNA 2: CAGGACCAAAGGAGAACATTGGGTTCCACC
B2: Wt-GRE1 (dsDNA)
DNA 1: CAAACTAGCGCTGTTCTTTACTGAATGCCC
DNA 2: GGGCATTCAGTAAAGAACAGCGCTAGTTTG
B3: Mut-GRE2 (dsDNA)
DNA 1: GGTGGAACCCAAGAGCACCCTTTGGTCCTG
DNA 2: CAGGACCAAAGGGTGCTCTTGGGTTCCACC
B4: Mut-GRE1 (dsDNA)
DNA 1: CAAACTAGCGCCAGGTCTTTACTGAATGCCC
DNA 2: GGGCATTCAGTAAAGACCTGGCGCTAGTTTG

What follows are binders tested against Glucocorticoid receptor (Hu-GR), unliganded (human, UniProt P04150 1-777) (assay: EMSA; no glucocorticoid; GR 40 ng (0.5 pmol), probe 0.5 ng (0.05 pmol), 1 ug poly(dI-dC), 25 ul; 6% non-denaturing PAGE; buffer, salt, pH and temperature not stated). Conditions: protein: recombinant; chain copies: 2; label: 32P 5'-end; blunt.
Sequence of Glucocorticoid receptor (Hu-GR), unliganded (P04150 whole entry): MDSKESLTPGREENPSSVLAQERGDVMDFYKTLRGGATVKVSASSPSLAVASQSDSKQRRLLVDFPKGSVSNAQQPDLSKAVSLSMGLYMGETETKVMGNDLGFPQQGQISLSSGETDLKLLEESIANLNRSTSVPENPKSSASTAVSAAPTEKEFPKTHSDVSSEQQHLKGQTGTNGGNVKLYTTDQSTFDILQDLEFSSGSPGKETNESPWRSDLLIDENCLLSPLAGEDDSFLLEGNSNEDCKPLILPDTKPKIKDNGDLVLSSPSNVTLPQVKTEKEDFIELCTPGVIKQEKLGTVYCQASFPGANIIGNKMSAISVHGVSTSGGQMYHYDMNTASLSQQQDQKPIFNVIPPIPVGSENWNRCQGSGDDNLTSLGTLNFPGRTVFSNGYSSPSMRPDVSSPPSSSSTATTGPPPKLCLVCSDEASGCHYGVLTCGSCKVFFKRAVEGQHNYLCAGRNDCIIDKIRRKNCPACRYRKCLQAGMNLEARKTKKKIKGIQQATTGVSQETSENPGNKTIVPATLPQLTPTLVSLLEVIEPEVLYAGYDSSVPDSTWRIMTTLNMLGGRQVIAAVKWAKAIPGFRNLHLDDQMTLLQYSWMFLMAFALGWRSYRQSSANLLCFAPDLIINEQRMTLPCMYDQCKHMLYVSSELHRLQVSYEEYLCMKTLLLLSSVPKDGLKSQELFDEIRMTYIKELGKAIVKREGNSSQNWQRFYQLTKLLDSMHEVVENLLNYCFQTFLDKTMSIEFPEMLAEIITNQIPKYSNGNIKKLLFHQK
B1: binds. B2: binds. B3: no binding. B4: no binding.
